Biological target: cLUC-SlPIF4 (tomato (Solanum lycopersicum))
Assay: split reporter (BiFC, NanoBiT); split luciferase complementation: cLUC-SlPIF4 and nLUC-SlDELLA co-expressed in N. benthamiana leaves for 2 days; 1 mM D-luciferin; camera and microplate luminometer

Sequence of cLUC-SlPIF4 (tomato (Solanum lycopersicum)) (main, as listed by the source): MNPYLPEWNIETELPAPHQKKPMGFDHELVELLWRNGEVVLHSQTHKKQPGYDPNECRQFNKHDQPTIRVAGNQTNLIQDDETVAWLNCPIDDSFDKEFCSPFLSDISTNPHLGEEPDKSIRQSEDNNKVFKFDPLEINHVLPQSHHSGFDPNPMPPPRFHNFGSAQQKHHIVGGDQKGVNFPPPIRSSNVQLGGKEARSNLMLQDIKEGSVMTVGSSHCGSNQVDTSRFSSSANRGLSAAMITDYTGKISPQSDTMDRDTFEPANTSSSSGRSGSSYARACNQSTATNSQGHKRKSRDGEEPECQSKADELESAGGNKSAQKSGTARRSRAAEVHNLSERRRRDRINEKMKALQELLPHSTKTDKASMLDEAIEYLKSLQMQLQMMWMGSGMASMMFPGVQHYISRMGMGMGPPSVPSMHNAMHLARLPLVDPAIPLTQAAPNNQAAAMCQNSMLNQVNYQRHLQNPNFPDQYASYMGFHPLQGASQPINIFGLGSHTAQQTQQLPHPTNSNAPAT

**Q.** For nLUC-SlDELLA (natural protein), which luciferase activity, fold over the control co-expressing cLUC and nLUC (times the control) is on record?
**A.** 170

— paper PMC11384114
